How the values were obtained:
Type in all cases: cell-based, human
primary T cells = assay: CD19 CAR expression on lentivirus transduced primary T cells (flow cytometry with CD19-Fc); conditions: for CAR expression, % positive: day 7 of T cell expansion
Description: (§1) Primary T cells were activated with CD3/CD28 Dynabeads at 3:1 Bead: Cell ratio overnight, then transduced with OT-001792 lentivirus. On day 7 of the T cell expansion, CAR expression was measured by flow cytometry with CD19-Fc on cells treated overnight in the presence (34% positive) or absence (0.6% positive) of 1 μM Bazedoxifene. After the T cells had expanded for 10 days, they were mixed with CD19-expressing Nalm6 target cells at ratios of 10:1 and 2.5:1 total T cells:Nalm6 cells and cultured for 3 days.
Primary T cells were activated with CD3/CD28 Dynabeads at 3:1 Bead:Cell ratio overnight, then transduced with lentiviruses derived from the indicated constructs. On day 7 or day 9 (as indicated) of the T cell expansion, CAR expression was measured by flow cytometry with CD19-Fc on cells incubated for 24 hours with 1 μM Bazedoxifene or 1 μM Raloxifene or DMSO. […] At day 9 the basal percentage of CAR positive cells for the same constructs was even lower at approximately 20% i.e. in the absence of ligand and about 32-45% in the presence of either ligand. […] This was true at both day 7 and day 9.
Human donor T cells were thawed and activated overnight in the presence of CD3/CD28 Dynabeads at 3:1 bead:cell ratio, then transduced with lentivirus related to OT-002158, or OT-001786. Cells were expanded over the course of 10 days, with fresh media added to maintain cells at around 0.5×10^6 cells/mL. On day 9, an aliquot of cells was removed, and treated with 1 μM Bazedoxifene overnight or DMSO vehicle control, then stained with 10 μg/mL CD19-Fc. Histograms showing CAR expression from a Live Singlet cell gate were plotted.
Human donor T cells were thawed and activated overnight in the presence of CD3/CD28 Dynabeads at 3:1 bead:cell ratio, then transduced with lentivirus from the constructs. Cells were expanded over the course of 10 days, and fresh media was added to maintain cells around 0.5×10^6 cells/ml. On day 9, an aliquot of cells were removed, treated with 1 μM Bazedoxifene overnight, then stained with 10 μg/mL CD19-Fc. Histograms showing CAR expression from a Live Singlet cell gate were plotted. The data are shown in Table 19 and Table 20 where data are presented as % CAR positive cells, where SR indicates stabilization ration.
T cells were transduced with OT-00179, OT-002158, OT-001407 or empty vector and expanded as described herein, frozen on day 10. To confirm the expression and function of this large scale expansion for in vivo use, cells were thawed and incubated overnight in the presence of CD3/28 beads (1:1 bead:cell ratio) and with or without 1 μM Bazedoxifene. FACS staining with 1 μg/mL CD19-Fc was performed to measure the surface expression of CD19-CAR. The data are provided in Table 21 as the percentage CAR positive cells.

Nalm6 target cells [1] = assay: Nalm6 target cell killing by CAR T cells (Incucyte)
Description: as §1
(§2) To measure Interferon gamma production, T cells transduced with the constructs OT-00179, OT-002158, OT-001407 or empty vector were thawed and co-cultured with Nalm6 target cells (stably expressing NucRed®) at different ratios of transduced T cells (herein referred to as the Effector) and Nalm 6 cells (herein referred to as the Target). Target cell viability was determined by measuring cellular fluorescence over time using the Incucyte instrument. Data presented in Table 22 are expressed as Nalm6 cell area at representative time points (0, 24, and 42 hour (hr)). The lower the numerical value of the Nalm6 area, the higher the cytotoxicity effected by the Effector cells.

Nalm6 target cells [2] = assay: Interferon gamma in T cell/Nalm6 co-culture supernatants (MSD); conditions: co-culture supernatant at 42 hours
Description: as §2
Cell culture supernatants were collected from the T cell/Nalm6 cytotoxicity assay co-cultures at 42 hours. Interferon gamma was measured by MSD and is described in Table 23.

B1: OT-001792: CD8α leader; Linker (RS); ER (L384M, M421G, G521R, Y537S); Furin cleavage site; CD19 CAR; SEQ ID NO. 406 (protein)
chain: MALPVTALLLPLALLLHAARPRSSLALSLTADQMVSALLDAEPPILYSEYDPTRPFSEASMMGLLTNLADRELVHMINWAKRVPGFVDLTLHDQVHLLECAWMEILMIGLVWRSMEHPGKLLFAPNLLLDRNQGKCVEGGVEIFDMLLATSSRFRMMNLQGEEFVCLKSIILLNSGVYTFLSSTLKSLEEKDHIHRVLDKITDTLIHLMAKAGLTLQQQHQRLAQLLLILSHIRHMSNKRMEHLYSMKCKNVVPLSDLLLEMLDAHRLGTGAEDPRPSRKRRSLGDVGEIVMTQSPATLSLSPGERATLSCRASQDISKYLNWYQQKPGQAPRLLIYHTSRLHSGIPARFSGSGSGTDYTLTISSLQPEDFAVYFCQQGNTLPYTFGQGTKLEIKGGGGSGGGGSGGGGSQVQLQESGPGLVKPSETLSLTCTVSGVSLPDYGVSWIRQPPGKGLEWIGVIWGSETTYYSSSLKSRVTISKDNSKNQVSLKLSSVTAADTAVYYCAKHYYYGGSYAMDYWGQGTLVTVSSTTTPAPRPPTPAPTIASQPLSLRPEACRPAAGGAVHTRGLDFACDIYIWAPLAGTCGVLLLSLVITLYCKRGRKKLLYIFKQPFMRPVQTTQEEDGCSCRFPEEEEGGCELRVKFSRSADAPAYKQGQNQLYNELNLGRREEYDVLDKRRGRDPEMGGKPRRKNPQEGLYNELQKDKMAEAYSEIGMKGERRRGKGHDGLYQGLSTATKDTYDALHMQALPPR
ligand dependent regulation of CAR expression (in words) (primary T cells; 1 μM Bazedoxifene or Raloxifene versus DMSO, day 7 or day 9): did not show any ligand dependent regulation of CAR expression | % CAR positive cells, Bazedoxifene (primary T cells; Table 21, thawed cells, overnight with CD3/28 beads, 1 μM Bazedoxifene, 1 μg/mL CD19-Fc): 39.6% | % CAR positive cells, Vehicle (primary T cells; Table 21, thawed cells, overnight with CD3/28 beads, without Bazedoxifene, 1 μg/mL CD19-Fc): 0.39% | CAR expression, % positive (primary T cells; overnight in the absence of Bazedoxifene): 0.6% | CAR expression, % positive (primary T cells; overnight in the presence of 1 μM Bazedoxifene): 34% | Nalm 6 area, total target area (Nalm6 target cells [1]; 0 hr, Effector:Target 0.3:1, + 1 μM Bazedoxifene): 57617.98 | Nalm 6 area, total target area (Nalm6 target cells [1]; 0 hr, Effector:Target 0.3:1, no ligand): 71711.59 | Nalm 6 area, total target area (Nalm6 target cells [1]; 0 hr, Effector:Target 1:1, + 1 μM Bazedoxifene): 67768.82 | Nalm 6 area, total target area (Nalm6 target cells [1]; 0 hr, Effector:Target 1:1, no ligand): 62673.31 | Nalm 6 area, total target area (Nalm6 target cells [1]; 0 hr, Effector:Target 3:1, + 1 μM Bazedoxifene): 54788.54 | Nalm 6 area, total target area (Nalm6 target cells [1]; 0 hr, Effector:Target 3:1, no ligand): 60708.63 | Nalm 6 area, total target area (Nalm6 target cells [1]; 0 hr, Effector:Target 10:1, + 1 μM Bazedoxifene): 55572.92 | Nalm 6 area, total target area (Nalm6 target cells [1]; 0 hr, Effector:Target 10:1, no ligand): 57172.20 | Nalm 6 area, total target area (Nalm6 target cells [1]; 24 hr, Effector:Target 0.3:1, + 1 μM Bazedoxifene): 94217.60 | Nalm 6 area, total target area (Nalm6 target cells [1]; 24 hr, Effector:Target 0.3:1, no ligand): 123175.80 | Nalm 6 area, total target area (Nalm6 target cells [1]; 24 hr, Effector:Target 1:1, + 1 μM Bazedoxifene): 103535.70 | Nalm 6 area, total target area (Nalm6 target cells [1]; 24 hr, Effector:Target 1:1, no ligand): 104433.20 | Nalm 6 area, total target area (Nalm6 target cells [1]; 24 hr, Effector:Target 3:1, + 1 μM Bazedoxifene): 67794.87 | Nalm 6 area, total target area (Nalm6 target cells [1]; 24 hr, Effector:Target 3:1, no ligand): 105474.34 | Nalm 6 area, total target area (Nalm6 target cells [1]; 24 hr, Effector:Target 10:1, + 1 μM Bazedoxifene): 40606.37 | Nalm 6 area, total target area (Nalm6 target cells [1]; 24 hr, Effector:Target 10:1, no ligand): 93991.37 | Nalm 6 area, total target area (Nalm6 target cells [1]; 42 hr, Effector:Target 0.3:1, + 1 μM Bazedoxifene): 143903.95 | Nalm 6 area, total target area (Nalm6 target cells [1]; 42 hr, Effector:Target 0.3:1, no ligand): 197082.75 | Nalm 6 area, total target area (Nalm6 target cells [1]; 42 hr, Effector:Target 1:1, + 1 μM Bazedoxifene): 133539.50 | Nalm 6 area, total target area (Nalm6 target cells [1]; 42 hr, Effector:Target 1:1, no ligand): 171919.20 | Nalm 6 area, total target area (Nalm6 target cells [1]; 42 hr, Effector:Target 3:1, + 1 μM Bazedoxifene): 58548.97 | Nalm 6 area, total target area (Nalm6 target cells [1]; 42 hr, Effector:Target 3:1, no ligand): 180465.55 | Nalm 6 area, total target area (Nalm6 target cells [1]; 42 hr, Effector:Target 10:1, + 1 μM Bazedoxifene): 25302.71 | Nalm 6 area, total target area (Nalm6 target cells [1]; 42 hr, Effector:Target 10:1, no ligand): 156073.75 | CD19-CAR mediated target cell killing (Nalm6 target cells [1]; T cells:Nalm6 10:1 and 2.5:1, 3 days, with or without 1 μM Bazedoxifene): observed specifically in the presence of 1 μM Bazedoxifene | IFN gamma levels, 1 μM Bazedoxifene (Nalm6 target cells [2]; 1 μM Bazedoxifene): 7079.60 pg/mL | IFN gamma levels, Vehicle (Nalm6 target cells [2]; vehicle): 91.09 pg/mL

— patent US20210386788A1, “ER TUNABLE PROTEIN REGULATION” (Obsidian Therapeutics, Inc., priority 2018, published 2021)
